Assay: yeast display, Sf9 membrane polyspecificity reagent, FACS + sequencing; frameworks hold sequencing errors
Outline: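 Using colony PCR, genes from sorted yeast display clones were amplified, then sequenced on MiSeq at 2 × 250 and filtered by CDR length. The clones had been stained with 10% biotinylated, detergent-solubilized Sf9 membrane reagent for 1 hour at 4 °C and sorted by FACS into low and high (top ~1%) gates on anti-HA and streptavidin fluorescence. Polyreactivity labels come from the gate of origin.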

| Sequence | polyreactivity (PSR sort gate) |
| --- | --- |
| QVQLVESGGGLVQAGGSLSLSCAASGRTFASNAIGWYRQAPGKERELVAAISSAGGTNYADSVKGRFTISRDNAKNTVYLQMISLKPEDTAVYYCAAASPYYSYHRYIYYYWGQGTQVTVSS | high polyreactivity |
| QVQLVESGGGLVQAGGSLSLSCAASGRTFIRNAMGWYRQAPRKEREVVAAINSCGITNYADSVNGRFTISRDNAKNTVDLQMNSLKPEDTAVYYCANTFQYYWFSLYDYWGQGTQVTVSS | low polyreactivity |
| QVQLVESGGGLVQAGGSLSLSCAASGRTFNNNAMGCYIPAPGKERELVAAITSGASTNYADSVKGRFTISRDNAKNTVYLQMNSLKPEDTAVYYCAKATYPHEYDYWGQGTQVTVSS | low polyreactivity |
| QVQLVESGGGLVQAGGSLSLSCAASGRTFRVYAMGSYRQSPRKERELVAAITNGGSTNYADSVKGRFTISRDNAKNTVYLQMNSLKPEDTAVYYCARVHRSYVAAQGVYVGNYYWGQGTQVTVSS | high polyreactivity |
| QVQLVESGGGLVQAGGSLSLSCAASGRTFRYYAMGWYRQAPGKERELVAAMRTRGASTYYADSVKGRFTISRDNAKNSVYLQMNSLKPEVSAVYYCAASRSGHGIIDYDSWGK | low polyreactivity |
| QVQLVESGGGLVQAGGSLSLSCAASGRTFSGNAMGWYRQAPGKERELVAAINWRGGRTYYADSVKGRFTISRDNAKNTVYLQMNSLKPEDTAVYYCAAVYVFHRYIYSLYDYWGQGTQVTVSS | high polyreactivity |
| QVQLVESGGGLVQAGGSLSLSCAASGSIFAAYTMGWYRQAPGQDRELVAAITSGGTYADSVKGRFTISRDNAKYSVYLQKNSLQPEVTAVYYCYAGNNVVVDYDYWGQGTQVTVSS | low polyreactivity |
| QVQLVESGGGLVQAGGSLSLSCAASGSIFAGNAMGWYRQAPGKERELVAAIRWSTGSTYYADSVKGRFTISRDNAKNTVYLQMNSQKPEDTAVYYCAATDTTFYGIVRYEFWGQGTQVTVSS | low polyreactivity |
| QVQLVESGGGLVQAGGSLSLSCAASGSIFASYAMGWYRQAPGKERELVAAITSDGNTYYADSVKGRFTISRDNAKNTVYLQMNSLKPEDTAVYYCAADRYSTYPYAKGTEFYYWGQGTQVTVSS | low polyreactivity |
| QVQLVESGGGLVQAGGSLSLSCAASGSIFFNNAMGWYRQAPGKERELVAAITWRDGSTNYADSVKGRFTISRDIAKNTVYLQMNSLKPEDTAVYYCNKVKEFGNVWFLPKYNYWGQGTQVTVSS | low polyreactivity |
| QVQLVESGGGLVQAGGSLSLSCAASGSIFGENAKGWYRQAPGKERELVAAITWGGTSTYYADSVKGRFTISRDNAKNTVYLQMNSLKPEDTAVYYCNTPRYVRRQGVKRYDYWGQGTQVTVSS | low polyreactivity |
| QVQLVESGGGLVQAGGSLSLSCAASGSIFGFNAMGWYRQAPGKERELVAAINNGGSTNYADSVKGRFTISRDNAKNTVYLQMNSLNPEDTSVYYCAAVGGWRWSNQDYRYPYYYWGQGTQVTVSS | high polyreactivity |
| QVQLVESGGGLVQAGGSLSLSCAASGSIFGGYTMGRKRQAPGKERELVAAISSVGSTYYADSVKGRFTISRDNAKNTVYLQMNSLKTEDTAVYYCATSTYAYRRNSNYYSLPRFGYWGQGTQVSVSS | high polyreactivity |
| QVQLVESGGGLVQAGGSLSLSCAASGSIFPHYAMGWYRQAPGKERELVAAISRGGSTNYADSVKGRFTISRDNAKNTVYLQMISLKPEDTAVYYCNARVYTKDYKRYDYWGQGTQVTVSS | high polyreactivity |
| QVQLVESGGGLVQAGGSLSLSCAASGSIFYGYAMGWYRQAPGKERELVAAITSGGRTYYADSVKGRFTISRDNAKNTVYLQMNSLKPEDTAVYYCNAVYRKTSYGYWGQGTQVTVSS | high polyreactivity |
| QVQLVESGGGLVQAGGSLSLSCAASGSILDRNTMGWYRQAPGKERELVAAITGSGSRTYYADSVKGRFTISRDNAKNTVYLQMNSLKPEDTAVYYCAAYTHSWTGDNYWGQGTQVTVSS | high polyreactivity |

| Sequence | polyreactivity (PSR sort gate) |
| --- | --- |
| QVQLVESGGGLVQAGGSLSLSCAASGSTFGYYARGWYRQAPGKERELVATITIGGYTHYADSVKGRFTISRDNAKNTVYLQMNSLKPEDTAFYYCAKRYYTNRHSRAFGYWGQGTQVTVSS | high polyreactivity |
| QVQLVESGGGLVQAGGSLSLSCAASGSTFPEYVMGWYRQAPGKERELVAAITRRGGRTYYADSVKGRFTISRDNAKNTVYLQMNSLKPEDTEVYYCAAKSAVVVCMDSWGQGTQVTVSS | high polyreactivity |
| QVQLVESGGGLVQAGGSLSLSCAASGSTFSIYTMGWYRQAPGKERELVAVITKSGGSTYYADSVKGRFTISRDNAKNTVYLQMNSLKPEDTAVYYCAARRRGARHDYWGQGTQVTVSS | high polyreactivity |
| QVQLVESGGGLVQAGGSLSLSCAASGSTFYHYAMGWYRQAPGKERELVAAISSSGGRTYYADSVKGRFTISRDNAKYTVYLQMNSLKPEDTAVYYCAARAKTSGSIEDYWGQGTQVTVSS | high polyreactivity |
| QVQLVESGGGLVQAGGSLSLSCAASGSTIVVNAMGWYRQAPGKERELVASISWTTCSTYYADSVKGRFTISRDNAKNTVYLQMNSLKPEDTAVYYCAADILPRYSQFDYWGQGTQVTVSS | low polyreactivity |
| QVQLVESGGGLVQAGGSLSLSCAASGSTSVLNAMGWYRHAPGKERELVAALTSGVDSTYYADSVKGRFTISRDNAKNTVYLQMNSVKREDTAVYYCATVVDALDNSYKRVYLFDYWGQGTQVTVSS | low polyreactivity |
| QVQLVESGGGLVQAGGSLSLSCAASGTFSPYAMGWYRQAPGKERELVADITSNTGRTYAASVKGRFTISRDNAKNTVYLQMNSLKPEDTAVYYCNTYGSGTHSTGYDYWGQGTQVTVSS | low polyreactivity |
| QVQLVESGGGLVQAGGSLSLSCAASRFTIGLYAMGWYRQAPGKEREMVAVISSSGGSTYYADSVKGRFTISRDNAKNTVYLQMNSLKPEDTAVYYCAAEWHDYKFDVTYDYWGQGTQVTVSS | low polyreactivity |
| QVQLVESGGGLVQAGGSLSLSCAATGSIITSNAMGWYRQAPGKERELVAAISWSGSRTFYADSVKGRFTISRDNEKNTVYLQMNSLKPEDTAVYYCAAGNRKWKMGYWGQGTQVTVSS | high polyreactivity |
| QVQLVESGGGLVQAGGSLSLSCAATGSTFWWYAMGWYRQAPGKEREFVAAIRWSSGSTYYADSVKGRFTISRDNAKNTVYLQMNSLKPEDTAVYYCATDDTSNVYVDLDYWGQGTQVTVSS | high polyreactivity |
| QVQLVESGGGLVQAGGSLSLSCAAYGITISIYSMGSYRQAPGKERELVAAINSGGTTYYADSVKGRFTISRDNAKNTVYLQMNSLKPEDTAVYYCADEYFAYPYEFYGGQGTQVTVSS | high polyreactivity |
| QVQLVESGGGLVQAGGSLSLSCADSGSNFGDYAMGWYRQAPGKERELFAAISFSDGSTYYADSVKGRFTISRDNANNTVYLQMNSLKPEDTAVYYCAKDAYWGYRWYTYDYWGQGTQVTVSS | low polyreactivity |
| QVQLVESGGGLVQAGGSLSLSCPASGRIFRWNAMGWYRQAPGKEREFVAAISWSGGSTYYADSVKGRFTISRDNAKNTVYLQMNSLKPEDTAVYYCNKVGYYGVGTSQEFDYWGQGTQVTVSS | high polyreactivity |
| QVQLVESGGGLVQAGGSLSLSWAASGSTFETNAMGWYRQAPGKERELVAVITRGGSTYSADSVKGRFTISRDNAKNTVFLQMNRLKPEDTAVYYCNTVKYVPINYIYAMDYWGQGTQVTVSS | low polyreactivity |
| QVQLVESGGGLVQAGGSLSLTCAASVLTLTGYPMGWYRPAPGKERELVAAISSRGGSTYYADSVKGRFTISRDNAKNTVYLQMNSLKREDTAFYYCDARASSGARGLDYWGQGTQVTVSS | high polyreactivity |
| QVQLVESGGGLVQAGGSRRLRCAASGSTFDVYAMGWYRQAPGKESELVAVINTSGTRTYYADSVKGRFTISRDNAKNTVYLQMNSLKPEDTAVYSCNAGGHLEMNYWGQGTQVTVSS | low polyreactivity |

Source: the nanobody polyreactivity screen of Harvey et al. (2022)
